Source: US7091173 (MYRIAD GENETICS, dated 2006)

Target: T1, FKBP-associated protein FAP48 (FAP48), amino acids 118-418, bait fused to the Gal4 DNA binding domain (human, UniProt P04386 1-147 (Saccharomyces cerevisiae entry))
T1 construct: range 1-147; Bait of the yeast two-hybrid screen; The coordinates 118-418 are counted on GenBank U73704
Assay: yeast two-hybrid; listed as prey of the bait in 'Binding Regions of FAP48 and Its Interacting Partners'; true positive by beta-galactosidase assay
Excerpt: The new construct was selected directly in the yeast strain PNY200 for its ability to drive tryptophane synthesis (genotype of this strain: MATα trp1-901 leu2-3, 112 ura3-52 his3-200 ade2 gal4Δ gal80). In these yeast cells, the bait was produced as a C-terminal fusion protein with the DNA binding domain of the transcription factor Gal4 (amino acids 1 to 147). Prey libraries were transformed into the yeast strain BK100 (genotype of this strain: MATa trp1-901 leu2-3,112 ura3-52 his3-200 gal4Δ gal80 LYS2::GAL-HIS3 GAL2-ADE2 met2::GAL7-lacZ), and selected for the ability to drive leucine synthesis. In these yeast cells, each cDNA was expressed as a fusion protein with the transcription activation domain of the transcription factor Gal4 (amino acids 768 to 881) and a 9 amino acid hemagglutinin epitope tag. PNY200 cells (MATα mating type), expressing the bait, were then mated with BK100 cells (MATa mating type), expressing prey proteins from a prey library. The resulting diploid yeast cells expressing proteins interacting with the bait protein were selected for the ability to synthesize tryptophan, leucine, histidine, and adenine. […]

B1: Dynactin (DCTN1(1278), p150-Glued), amino acids 1063-1205, prey fused to the Gal4 activation domain (other, UniProt P04386 768-881, looked up, not shown: small tags and cut ends)
chain: ANFNQSGNIADSSLSFTFTNSSNGPNLITTQTNSQALSQPIASSNVHDNFMNNEITASKIDDGNNSKPLSPGWTDQTAYNAFGITTGMFNTTTMDDVYNYLFDDEDTPPNPKKEIAGEEQQRGAIPGQAPGSVPGPGLVKDSPLLLQQISAMRLHISQLQHENSILKGAQMKASLASLPPLHVAKLSHEGPGSELPAGALYRKTSQLLETLNQLSTHTHVVDITRTSPAAKSPSAQLMEQVAQLKSLSDTVEKLKDE
notes: range 768-881;range 1063-1205; Prey clone of the yeast two-hybrid screen; Coordinates are counted on the GenBank entry; also called 150 kD dynein-associated polypeptide; DP-150
binding result: binds
